In this assay the target is Recombinant human mannose binding lectin (MBL) (human) (UniProt P11226).

As usually defined, the EC50 (read off the curve) is the concentration giving half of the maximal effect.

Chain of Recombinant human mannose binding lectin (MBL) (human) (P11226 21-248 limits assumed): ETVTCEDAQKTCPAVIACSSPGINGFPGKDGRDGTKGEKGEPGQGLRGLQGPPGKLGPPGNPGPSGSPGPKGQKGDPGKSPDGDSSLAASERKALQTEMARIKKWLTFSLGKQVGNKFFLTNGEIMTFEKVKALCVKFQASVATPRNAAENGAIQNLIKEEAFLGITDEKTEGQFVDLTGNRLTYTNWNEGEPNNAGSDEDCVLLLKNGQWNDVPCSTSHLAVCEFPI

On to “Biotinylated SARS-CoV-2 S protein, His Tag, active trimer (from UniProt P0DTC2 16-1213) (other; other documents disagree on this pair)”, for which the EC50 (read off the curve) was 3 nM.

Source of the values: patent US20240123029A1.
